Reference: US20230032737A1 (published 2023)
One block for each binder: values may come before it.

Biological target: purified human factor D (from human plasma) (human, UniProt P00746 26-253)
Experiment: Biacore SPR

Sequence of purified human factor D (from human plasma) (P00746 26-253): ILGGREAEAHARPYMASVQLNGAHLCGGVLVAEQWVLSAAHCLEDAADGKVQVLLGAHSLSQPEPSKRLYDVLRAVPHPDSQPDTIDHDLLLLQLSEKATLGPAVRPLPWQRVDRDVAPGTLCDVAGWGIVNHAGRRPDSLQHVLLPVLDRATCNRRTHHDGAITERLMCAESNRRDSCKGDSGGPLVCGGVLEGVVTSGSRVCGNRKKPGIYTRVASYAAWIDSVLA

- Kd: 0.153 nM
B1: recombinant chimeric 11-8A1 (variable region of 11-8A1 + constant region of human IgG4) (antibody, V domains shown)
VH: EVQLQQSGADLVRPGASVKLSCTTSGFNIKDTYVHWVKQRPEQGLEWIGRIDPANGLTTFDPRFQAKATITADTSSNTAYLQLSSLTSEDTAVYYCTYAMEYWGQGTSVTVSS
VL: QIVLTQSPAIMSASPGERVTMTCSARSDVSYMYWYQQKPGSSPRLLIYDTSNLASGVPVRFSASGSGTSYSLTISRMEAEDAATYYCQQWSSYPPWTFGGGTKLEIK

- Kd: 0.148 nM
B2: mAb 11-8A1 (hybridoma-derived murine anti-human factor D monoclonal antibody) (antibody, V domains shown)
VH: B1 VH
VL: QIVLTQSPAIMSASPGERVTMTCSARSDVSYMYWYQQKPGSSPRLLIYDTSNLASGVPVRFSASGSGTSYSLTISRMEAEDAATYYCQQWSSYPPWTFGGGTKLEIKR
